This is an account of results in patent US20240254220A1, “COMBINED THERAPY USING ANTI-CD300C ANTIBODY” (CentricsBio, Inc., priority 2021, published 2024).

Test [1] has as its system CD300a antigen and seven B7 family protein antigens (PD-L1, ICOS Ligand, CD276, B7-H4, CD80, CD86, CD273). Kind of test: Binding specificity ELISA against B7 family proteins. Conditions: antigens coated at 8 μg/mL. The method, then:
In order to identify that the anti-CD300c monoclonal antibody CL7 specifically binds only to CD300c without binding to other B7 family proteins, binding ELISA was performed. More specifically, each of CD300c antigen, CD300a antigen, or seven B7 family protein antigens (PD-L1 [B7-H1] (Sino Biological), ICOS Ligand[B7-H2] (Sino Biological), CD276[B7-H3] (Sino Biological), B7-H4 (Sino Biological), CD80[B7-1] (Sino Biological), CD86[B7-2] (Sino Biological), CD273[PD-L2] (Sino Biological)) in a coating buffer (0.1 M sodium carbonate, pH 9.0) was coated on an ELISA plate at a concentration of 8 μg/mL per well, and then bound to the plate by incubation at 2° C. to 8° C. overnight. The unbound antigen was removed by washing with PBST three times, and then […] of blocking buffer (5% skim milk in PBST) was added to each well. Subsequently, blocking was performed at room temperature for 1 hour, followed by washing again with PBST. Thereafter, CL7 was diluted in quadruplicate with PBS, incubated with the antigen at room temperature for 1 hour for antigen binding 1 hour later, and washed three times with PBST. […] Then, 2 N sulfuric acid solution was added to terminate the development reaction, and the absorbance was measured at 450 nm to identify the antibody specifically binding to the CD300c antigen.

In test [2] the test system is colon cancer cell line (CT26) tumor. Nature of the test: In vivo cancer growth inhibition, CT26 model, CL7 and anti-PD-1. On the set-up: species or system BALB/c mice. To be noted: CL7 10 mg/kg, anti-PD-1 10 mg/kg i.p. D12, D15, D19, D22; 25 days. The method, then: In order to identify anticancer effects of the anti-CD300c monoclonal antibody CL7 under in vivo conditions, a colon cancer cell line (CT26) at 2×10^5 cells was transplanted by subcutaneous injection into 8-week-old BALB/c mice to prepare syngeneic mouse tumor models. Animal breeding and experiments were all conducted in a SPF facility. On day 12 (D12) after transplantation of the colon cancer cell line, the mice with a tumor size of 50 mm^3 to 100 mm^3 were administered the anti-CD300c monoclonal antibody and an anti-PD-1 antibody purchased from BioXcell alone or in combination, and for a control group, the mice were administered the same amount of phosphate buffered saline (PBS). Specifically, the mice were intraperitoneally injected with the respective antibodies (CL7: 10 mg/kg; and anti-PD-1 antibody: 10 mg/kg) alone or in combination, twice a week for two weeks (a total of 4 times on D12, D15, D19, and D22). The tumor volume was measured for 25 days.

Another test concerns B16F10 melanoma cells. Nature of the test: In vivo cancer growth inhibition, B16F10 melanoma model. Conditions: CL7 25 mg/kg, α-PD-1 10 mg/kg, α-CTLA4 4 mg/kg i.p. twice a week, 4 times; 20 days. The arrangement: species or system C57BL/6 mice. The method, then:
In order to identify whether the anti-CD300c monoclonal antibody CL7 is effective in other carcinomas in addition to a CT26 colon cancer mouse model, an additional experiment was conducted with melanoma mouse models. B16F10 melanoma cells at 7×10^5 cells were transplanted by subcutaneous injection into 8-week-old male C57BL/6 mice to prepare syngeneic mouse tumor models. Animal breeding and experiments were all conducted in a SPF facility. On day 8 after transplantation of the melanoma cell line, the mice with a tumor size of 50 mm^3 to 100 mm^3 were intraperitoneally injected with 25 mg/kg of CL7, 10 mg/kg of α-PD-1, and 4 mg/kg of α-CTLA4. More specifically, the mice were injected, twice a week for 2 weeks (over a total of 4 times), with each of the anti-CD300c monoclonal antibody, the anti-PD-1 antibody, the anti-CD300c monoclonal antibody+the anti-PD-1 antibody (Combo), and the anti-CD300c monoclonal antibody+the anti-PD-1 antibody+the anti-CTLA-4 antibody (Triple), and for a control group, the mice were injected with the same amount of phosphate buffered saline (PBS). The cancer size was measured for 20 days.

Test [3] deals with MDA-MB-231 (human breast cancer cell line). Kind of test: MDA-MB-231 cancer cell growth inhibition (CCK-8). Format: cell-based. Conditions: 10 μg/mL each, 5 days. The text has this: In order to identify cancer cell growth inhibitory effects by combined administration of the anti-CD300c monoclonal antibody CL7 and an immunotherapeutic agent, the cancer cell growth inhibitory effects were compared using A549 (human lung cancer cell line) and MDA-MB-231 (human breast cancer cell line). Specifically, the cells were dispensed into a 96-well plate at 2×10^4 cells (A549) or 3×10^4 cells (MDA-MB-231) under 0% fetal bovine serum (FBS) conditions, and at 6×10^3 cells (A549) or 1×10^4 cells (MDA-MB-231) under 0.1% fetal bovine serum conditions. Subsequently, the cells were treated with the anti-CD300c monoclonal antibody and Imfinzi at 10 μg/mL alone or in combination, followed by incubation for 5 days. For a control group, the cells were treated with the same amount of phosphate buffer solution (PBS). Then, the cells were treated with CCK-8 (DOJINDO), and the absorbance was measured at OD 450 nm. The results are shown in FIG. 33 (A549) and FIG. 34 (MDA-MB-231).

B1: CL7: anti-CD300c monoclonal antibody, VH3VL1 phage library, VH SEQ ID 327, VL SEQ ID 328 (antibody, V domains shown)
VH: EVQLLESGGGLVQPGGSLRLSCAASGFTFSRYAMSWVRQAPGKGLEWVSAISGSGGSTYYADSVKGRFTISRDNSKNTLYLQMNSLRAEDTAVYYCARSSQGIFDIWGQGTLVTVSS
VL: QSVLTQPPSASGTPGQRVTISCSGNNIGTRRVHWYQQLPDTAPKLLIYSKNNRPSGVPDRFSGSKSGTSASLAISGLRSEDEADYYCAAWDDSLSGPVFGGGTKLTVL
modifications: CL7 Heavy Chain Variable Region; CL7 Light Chain Variable Region
In the case of B1, in test [1], the “binding specificity versus other similar proteins” value is reported as “specifically recognized only CD300c without binding to other similar proteins”. For the same molecule, the “cancer growth (tumor volume)” value in test [2] is “inhibited”. Also, the “cancer growth (cancer size)” value with B16F10 melanoma cells is listed as “inhibited”. For the same molecule, the “cancer cell growth inhibitory effect compared with control group” value in test [3] (MDA-MB-231, 0.1% FBS (second statement)) came to 19%; in test [3] (MDA-MB-231, 0.1% FBS as printed (first statement)), 19%.
